Experimental data taken from FireProtDB (doi:10.1110/ps.8.7.1530).

B1: PTS system mannose-specific EIIAB component, P69797 (parent)
chain: MTIAIVIGTHGWAAEQLLKTAEMLLGEQENVGWIDFVPGENAETLIEKYNAQLAKLDTTKGVLFLVDTWGGSPFNAASRIVVDKEHYEVIAGVNIPMLVETLMARDDDPSFDELVALAVETGREGVKALKAKPVEKAAPAPAAAAPKAAPTPAKPMGPNDYMVIGLARIDDRLIHGQVATRWTKETNVSRIIVVSDEVAADTVRKTLLTQVAPPGVTAHVVDVAKMIRVYNNPKYAGERVMLLFTNPTDVERLVEGGVKITSVNVGGMAFRQGKTQVNNAVSVDEKDIEAFKKLNARGIELEVRKVSTDPKLKMMDLISKIDK

Variants of: B1
Conditions: Escherichia coli (strain K12); pH 7.4; 22 °C; GdnHCl; Fluorescence; Sodium phosphate 20 mM; reversible: yes; structure 1PDO; whole UniProt chain shown

| Variant | denaturant midpoint (higher = more stable) | unfolding free energy |
| --- | --- | --- |
| MTIAIVIGTHGFAAEQLLKTAEMLLGEQENVGWIDFVPGENAETLIEKYNAQLAKLDTTKGVLFLVDTWGGSPFNAASRIVVDKEHYEVIAGVNIPMLVETLMARDDDPSFDELVALAVETGREGVKALKAKPVEKAAPAPAAAAPKAAPTPAKPMGPNDYMVIGLARIDDRLIHGQVATRWTKETNVSRIIVVSDEVAADTVRKTLLTQVAPPGVTAHVVDVAKMIRVYNNPKYAGERVMLLFTNPTDVERLVEGGVKITSVNVGGMAFRQGKTQVNNAVSVDEKDIEAFKKLNARGIELEVRKVSTDPKLKMMDLISKIDK [W12F] | 2.6 M | 14.1 kcal/mol |
| MTIAIVIGTHGWAAEQLLKTAEMLLGEQENVGFIDFVPGENAETLIEKYNAQLAKLDTTKGVLFLVDTWGGSPFNAASRIVVDKEHYEVIAGVNIPMLVETLMARDDDPSFDELVALAVETGREGVKALKAKPVEKAAPAPAAAAPKAAPTPAKPMGPNDYMVIGLARIDDRLIHGQVATRWTKETNVSRIIVVSDEVAADTVRKTLLTQVAPPGVTAHVVDVAKMIRVYNNPKYAGERVMLLFTNPTDVERLVEGGVKITSVNVGGMAFRQGKTQVNNAVSVDEKDIEAFKKLNARGIELEVRKVSTDPKLKMMDLISKIDK [W33F] | 2.2 M | 8.37 kcal/mol |
| MTIAIVIGTHGFAAEQLLKTAEMLLGEQENVGWIDFVPGENAETLIEKYNAQLAKLDTTKGVLFLVDTFGGSPFNAASRIVVDKEHYEVIAGVNIPMLVETLMARDDDPSFDELVALAVETGREGVKALKAKPVEKAAPAPAAAAPKAAPTPAKPMGPNDYMVIGLARIDDRLIHGQVATRWTKETNVSRIIVVSDEVAADTVRKTLLTQVAPPGVTAHVVDVAKMIRVYNNPKYAGERVMLLFTNPTDVERLVEGGVKITSVNVGGMAFRQGKTQVNNAVSVDEKDIEAFKKLNARGIELEVRKVSTDPKLKMMDLISKIDK [W12F W69F] | 2.1 M | 11 kcal/mol |
| MTIAIVIGTHGWAAEQLLKTAEMLLGEQENVGWIDFVPGENAETLIEKYNAQLAKLDTTKGVLFLVDTFGGSPFNAASRIVVDKEHYEVIAGVNIPMLVETLMARDDDPSFDELVALAVETGREGVKALKAKPVEKAAPAPAAAAPKAAPTPAKPMGPNDYMVIGLARIDDRLIHGQVATRWTKETNVSRIIVVSDEVAADTVRKTLLTQVAPPGVTAHVVDVAKMIRVYNNPKYAGERVMLLFTNPTDVERLVEGGVKITSVNVGGMAFRQGKTQVNNAVSVDEKDIEAFKKLNARGIELEVRKVSTDPKLKMMDLISKIDK [W69F] | 2.1 M | 6.22 kcal/mol |
| MTIAIVIGTHGWAAEQLLKTAEMLLGEQENVGFIDFVPGENAETLIEKYNAQLAKLDTTKGVLFLVDTFGGSPFNAASRIVVDKEHYEVIAGVNIPMLVETLMARDDDPSFDELVALAVETGREGVKALKAKPVEKAAPAPAAAAPKAAPTPAKPMGPNDYMVIGLARIDDRLIHGQVATRWTKETNVSRIIVVSDEVAADTVRKTLLTQVAPPGVTAHVVDVAKMIRVYNNPKYAGERVMLLFTNPTDVERLVEGGVKITSVNVGGMAFRQGKTQVNNAVSVDEKDIEAFKKLNARGIELEVRKVSTDPKLKMMDLISKIDK [W33F W69F] | 1.8 M | 5.26 kcal/mol |
| MTIAIVIGTHGFAAEQLLKTAEMLLGEQENVGFIDFVPGENAETLIEKYNAQLAKLDTTKGVLFLVDTWGGSPFNAASRIVVDKEHYEVIAGVNIPMLVETLMARDDDPSFDELVALAVETGREGVKALKAKPVEKAAPAPAAAAPKAAPTPAKPMGPNDYMVIGLARIDDRLIHGQVATRWTKETNVSRIIVVSDEVAADTVRKTLLTQVAPPGVTAHVVDVAKMIRVYNNPKYAGERVMLLFTNPTDVERLVEGGVKITSVNVGGMAFRQGKTQVNNAVSVDEKDIEAFKKLNARGIELEVRKVSTDPKLKMMDLISKIDK [W12F W33F] | 2.2 M | 10.8 kcal/mol |
